Sequences and labels used below:
B1: Death-inducer obliterator 1, residues 263 to 321; numbered along this chain, Q9BTC0 (parent)
chain: GYDPNALYCICRQPHNNRFMICCDRCEEWFHGDCVGISEARGRLLERNGEDYICPNCTI

This note sets out measurements from the Human Domainome abundance scans (Beltran et al. 2025).

± gives the uncertainty stated by the source.

The variants in this data set derive from B1. Kind of data set: abundance fitness (aPCA) (normalised: wild type 0, dead -1); higher = more abundant; growth selection in yeast, the domain comes from the species named. As to conditions: Homo sapiens.
With GYDPNALYCICRQPHNKRFMICCDRCEEWFHGDCVGISEARGRLLERNGEDYICPNCTI [N17K], the abundance fitness worked out at 0.023 ± 0.12. The result for GYDPNALYCICRQPHNHRFMICCDRCEEWFHGDCVGISEARGRLLERNGEDYICPNCTI [N17H] reads 0.008 ± 0.11. With GYDPNALYCICRQPHNYRFMICCDRCEEWFHGDCVGISEARGRLLERNGEDYICPNCTI [N17Y], the abundance fitness was -0.086 ± 0.059. Regarding GYDPNALYCICRQPHNCRFMICCDRCEEWFHGDCVGISEARGRLLERNGEDYICPNCTI [N17C], the abundance fitness was -0.117 ± 0.12. In the case of GYDPNALYCICRQPHNTRFMICCDRCEEWFHGDCVGISEARGRLLERNGEDYICPNCTI [N17T], the abundance fitness is -0.07 ± 0.074. For the variant GYDPNALYCICRQPHNDRFMICCDRCEEWFHGDCVGISEARGRLLERNGEDYICPNCTI [N17D], the abundance fitness is -0.148 ± 0.075. For the variant GYDPNALYCICRQPHNARFMICCDRCEEWFHGDCVGISEARGRLLERNGEDYICPNCTI [N17A], the abundance fitness is -0.03 ± 0.06. For the variant GYDPNALYCICRQPHNLRFMICCDRCEEWFHGDCVGISEARGRLLERNGEDYICPNCTI [N17L], the abundance fitness was -0.05 ± 0.053. The result for GYDPNALYCICRQPHNWRFMICCDRCEEWFHGDCVGISEARGRLLERNGEDYICPNCTI [N17W] reads -0.317 ± 0.11; that for GYDPNALYCICRQPHNPRFMICCDRCEEWFHGDCVGISEARGRLLERNGEDYICPNCTI [N17P], -0.179 ± 0.1; that for GYDPNALYCICRQPHNVRFMICCDRCEEWFHGDCVGISEARGRLLERNGEDYICPNCTI [N17V], -0.374 ± 0.073.

Consider GYDPNALYCICRQPHNGRFMICCDRCEEWFHGDCVGISEARGRLLERNGEDYICPNCTI [N17G], for which the abundance fitness came out at 0.032 ± 0.051. The value for GYDPNALYCICRQPHNIRFMICCDRCEEWFHGDCVGISEARGRLLERNGEDYICPNCTI [N17I] was -0.142 ± 0.11. On to GYDPNALYCICRQPHNMRFMICCDRCEEWFHGDCVGISEARGRLLERNGEDYICPNCTI [N17M], for which the abundance fitness was -0.043 ± 0.089. For GYDPNALYCICRQPHNQRFMICCDRCEEWFHGDCVGISEARGRLLERNGEDYICPNCTI [N17Q], the abundance fitness was 0.181 ± 0.15. The result for GYDPNALYCICRQPHNFRFMICCDRCEEWFHGDCVGISEARGRLLERNGEDYICPNCTI [N17F] reads -0.182 ± 0.082; that for GYDPNALYCICRQPHNNRMMICCDRCEEWFHGDCVGISEARGRLLERNGEDYICPNCTI [F19M], -0.265 ± 0.1; that for GYDPNALYCICRQPHNNRHMICCDRCEEWFHGDCVGISEARGRLLERNGEDYICPNCTI [F19H], 0.062 ± 0.27. The value for GYDPNALYCICRQPHNNRLMICCDRCEEWFHGDCVGISEARGRLLERNGEDYICPNCTI [F19L] was -0.016 ± 0.056; that for GYDPNALYCICRQPHNNRIMICCDRCEEWFHGDCVGISEARGRLLERNGEDYICPNCTI [F19I] was -0.028 ± 0.08; that for GYDPNALYCICRQPHNNRNMICCDRCEEWFHGDCVGISEARGRLLERNGEDYICPNCTI [F19N] was -0.341 ± 0.23. Consider GYDPNALYCICRQPHNNRAMICCDRCEEWFHGDCVGISEARGRLLERNGEDYICPNCTI [F19A], for which the abundance fitness is -0.182 ± 0.085. The value for GYDPNALYCICRQPHNNRQMICCDRCEEWFHGDCVGISEARGRLLERNGEDYICPNCTI [F19Q] was 0.048 ± 0.059; that for GYDPNALYCICRQPHNNREMICCDRCEEWFHGDCVGISEARGRLLERNGEDYICPNCTI [F19E] was -0.291 ± 0.14; that for GYDPNALYCICRQPHNNRKMICCDRCEEWFHGDCVGISEARGRLLERNGEDYICPNCTI [F19K] was -0.166 ± 0.091. For the variant GYDPNALYCICRQPHNNRRMICCDRCEEWFHGDCVGISEARGRLLERNGEDYICPNCTI [F19R], the abundance fitness was -0.145 ± 0.062. Consider GYDPNALYCICRQPHNNRGMICCDRCEEWFHGDCVGISEARGRLLERNGEDYICPNCTI [F19G], for which the abundance fitness is -0.224 ± 0.095. Take GYDPNALYCICRQPHNNRPMICCDRCEEWFHGDCVGISEARGRLLERNGEDYICPNCTI [F19P]: the abundance fitness was 0.088 ± 0.076. The result for GYDPNALYCICRQPHNNPFMICCDRCEEWFHGDCVGISEARGRLLERNGEDYICPNCTI [R18P] reads -0.34 ± 0.15. The result for GYDPNALYCICRQPHNNEFMICCDRCEEWFHGDCVGISEARGRLLERNGEDYICPNCTI [R18E] reads -0.023 ± 0.11.

As to GYDPNALYCICRQPHNNHFMICCDRCEEWFHGDCVGISEARGRLLERNGEDYICPNCTI [R18H], the abundance fitness turned out to be 0.112 ± 0.096. The result for GYDPNALYCICRQPHNNVFMICCDRCEEWFHGDCVGISEARGRLLERNGEDYICPNCTI [R18V] reads 0.03 ± 0.052. The result for GYDPNALYCICRQPHNNNFMICCDRCEEWFHGDCVGISEARGRLLERNGEDYICPNCTI [R18N] reads -0.168 ± 0.13; that for GYDPNALYCICRQPHNNFFMICCDRCEEWFHGDCVGISEARGRLLERNGEDYICPNCTI [R18F], -0.24 ± 0.17; that for GYDPNALYCICRQPHNNWFMICCDRCEEWFHGDCVGISEARGRLLERNGEDYICPNCTI [R18W], -0.16 ± 0.083.

On to GYDPNALYCICRQPHNNAFMICCDRCEEWFHGDCVGISEARGRLLERNGEDYICPNCTI [R18A], for which the abundance fitness was -0.073 ± 0.062.

As for GYDPNALYCICRQPHNNCFMICCDRCEEWFHGDCVGISEARGRLLERNGEDYICPNCTI [R18C], the abundance fitness is -0.047 ± 0.083. Take GYDPNALYCICRQPHNNQFMICCDRCEEWFHGDCVGISEARGRLLERNGEDYICPNCTI [R18Q]: the abundance fitness came to 0.042 ± 0.092. The value for GYDPNALYCICRQPHNNKFMICCDRCEEWFHGDCVGISEARGRLLERNGEDYICPNCTI [R18K] was 0.009 ± 0.082; that for GYDPNALYCICRQPHNNIFMICCDRCEEWFHGDCVGISEARGRLLERNGEDYICPNCTI [R18I] was -0.215 ± 0.17; that for GYDPNALYCICRQPHNNDFMICCDRCEEWFHGDCVGISEARGRLLERNGEDYICPNCTI [R18D] was -0.167 ± 0.081. On to GYDPNALYCICRQPHNNMFMICCDRCEEWFHGDCVGISEARGRLLERNGEDYICPNCTI [R18M], for which the abundance fitness was found to be 0.139 ± 0.07. As to GYDPNALYCICRQPHNNYFMICCDRCEEWFHGDCVGISEARGRLLERNGEDYICPNCTI [R18Y], the abundance fitness was 0.011 ± 0.086.

Consider GYDPNALYCICRQPHNNSFMICCDRCEEWFHGDCVGISEARGRLLERNGEDYICPNCTI [R18S], for which the abundance fitness came to 0.104 ± 0.074. The value for GYDPNALYCICRQPHNNGFMICCDRCEEWFHGDCVGISEARGRLLERNGEDYICPNCTI [R18G] was 0.105 ± 0.062.
